{"source": "paper PMC12375889", "about": "(Febs Letters, 2025)", "key": {"native MS": {"target": "the molecule itself", "assay": "native MS"}, "SEC": {"target": "the molecule itself", "assay": "SEC"}}}
{"protein": "MvoDUF2193 (natural protein, Methanococcus voltae strain A3, UniProt D7DSA4 1-499, looked up) MKELYEKMINEAMAAQWADVEVIKAKRGTKYKLTDGKPYVDAVQKMEAIGDQCSEVFDLHKNSVKIHYDTLCDLTDTVRPEDDPFVEHYQTPAILEILYNEDPKFREAVEKFIDSVEKNSALIGKEVVRRYGGFYGPTCVVDFALIPGSTSNIVNQILRKTDISEHYKQAILASKSWGMNTSYGIGDKFAHAVEDGKTLEEAIDEEIKTIKMIYDTPIQAQAKLMEEAGHTSFDVLKYMQDYKKKMESTVKKAIDADVNYANIVTVPAYCVGDISHHIAQSTYNMCKDDVIMAIIEATSKVMDNTLRNNIDKYKSEFDVLSLATGSTAAAVEYILELDGFNAPTVVQLLTRRFHNYVQLYPKRGAAAELHNCDFMDMIYRGWKTLDKARRMKNGSGTKLMPMVNDMPVDLDPIAENEVIMNPQRYAYPACAITVRFSSLMRLSDYPCLLTSEPVTATMMTNAIALHKNNPGAPARVCKKCASSCLVDFRHEYCQWRESV", "values": [{"measurement": "stoichiometry N", "setting": "native MS", "result": 2}, {"measurement": "stoichiometry N", "setting": "SEC", "result": 4}]}
